# Test results taken from patent publication US20230340098A1.
# Legend:
# [1] = target: human GARP protein not in any GARP/TGFβ1 complex (protein used in ELISA and Octet) (human) (UniProt Q14392); assay: Octet
# [2] = target: human GARP/TGFβ1 complex (protein used in ELISA and Octet) (human) (UniProt Q14392); assay: Octet
# [3] = target: human GARP/latent TGFβ1 complex on cells (human) (UniProt Q14392); assay: flow cytometry on human GARP/latent TGFβ1 transfected CHO-S cells, goat anti-human IgG(H+L) FITC
# Chain of human GARP protein not in any GARP/TGFβ1 complex (protein used in ELISA and Octet) (human) (Q14392 20-627 limits assumed, one chain of several): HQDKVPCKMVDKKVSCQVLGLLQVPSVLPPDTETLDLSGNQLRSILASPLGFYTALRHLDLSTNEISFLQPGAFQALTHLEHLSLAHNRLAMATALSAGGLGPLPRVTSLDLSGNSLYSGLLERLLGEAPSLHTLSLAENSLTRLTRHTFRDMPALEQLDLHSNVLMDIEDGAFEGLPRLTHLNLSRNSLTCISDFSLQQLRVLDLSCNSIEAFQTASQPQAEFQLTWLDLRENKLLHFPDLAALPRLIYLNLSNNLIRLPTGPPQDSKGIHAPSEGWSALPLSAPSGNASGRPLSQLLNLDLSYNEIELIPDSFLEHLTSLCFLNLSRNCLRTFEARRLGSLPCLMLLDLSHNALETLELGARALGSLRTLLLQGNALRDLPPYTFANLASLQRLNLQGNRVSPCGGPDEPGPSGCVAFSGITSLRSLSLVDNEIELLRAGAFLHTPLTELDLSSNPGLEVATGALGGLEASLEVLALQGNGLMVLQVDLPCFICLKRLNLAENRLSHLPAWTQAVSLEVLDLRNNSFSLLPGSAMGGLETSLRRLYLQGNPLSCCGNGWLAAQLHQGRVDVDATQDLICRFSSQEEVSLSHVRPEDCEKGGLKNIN
Substance,Kd [1],Kd [2],EC50 (read off the curve) [3]
"GARP ref. Ab2, a DS-1005a analog (antibody)",2.02 nM,4.12 nM,–
"GARP ref. Ab1, an ABBV-151 analog (antibody)",–,0.428 nM,0.3 µg/mL
